Laboratory results: publication PMC4160250 (PLoS ONE, 2014)

B1: UbE1, recombinant, purified (enzyme, mouse, UniProt Q02053 1-1058, looked up)
chain: MSSSPLSKKRRVSGPDPKPGSNCSPAQSALSEVSSVPTNGMAKNGSEADIDESLYSRQLYVLGHEAMKMLQTSSVLVSGLRGLGVEIAKNIILGGVKAVTLHDQGTTQWADLSSQFYLREEDIGKNRAEVSQPRLAELNSYVPVTAYTGPLVEDFLSSFQVVVLTNSPLEAQLRVGEFCHSRGIKLVVADTRGLFGQLFCDFGEEMVLTDSNGEQPLSAMVSMVTKDNPGVVTCLDEARHGFETGDFVSFSEVQGMIQLNGCQPMEIKVLGPYTFSICDTSNFSDYIRGGIVSQVKVPKKISFKSLPASLVEPDFVMTDFAKYSRPAQLHIGFQALHQFCALHNQPPRPRNEEDATELVGLAQAVNARSPPSVKQNSLDEDLIRKLAYVAAGDLAPINAFIGGLAAQEVMKACSGKFMPIMQWLYFDALECLPEDKEALTEEKCLPRQNRYDGQVAVFGSDFQEKLSKQKYFLVGAGAIGCELLKNFAMIGLGCGEGGEVVVTDMDTIEKSNLNRQFLFRPWDVTKLKSDTAAAAVRQMNPYIQVTSHQNRVGPDTERIYDDDFFQNLDGVANALDNIDARMYMDRRCVYYRKPLLESGTLGTKGNVQVVIPFLTESYSSSQDPPEKSIPICTLKNFPNAIEHTLQWARDEFEGLFKQPAENVNQYLTDSKFVERTLRLAGTQPLEVLEAVQRSLVLQRPQTWGDCVTWACHHWHTQYCNNIRQLLHNFPPDQLTSSGAPFWSGPKRCPHPLTFDVNNTLHLDYVMAAANLFAQTYGLTGSQDRAAVASLLQSVQVPEFTPKSGVKIHVSDQELQSANASVDDSRLEELKATLPSPDKLPGFKMYPIDFEKDDDSNFHMDFIVAASNLRAENYDISPADRHKSKLIAGKIIPAIATTTAAVVGLVCLELYKVVQGHQQLDSYKNGFLNLALPFFGFSEPLAAPRHQYYNQEWTLWDRFEVQGLQPNGEEMTLKQFLDYFKTEHKLEITMLSQGVSMLYSFFMPAAKLKERLDQPMTEIVSRVSKRKLGRHVRALVLELCCNDESGEDVEVPYVRYTIR
notes: also called purified UbE1; source: E. coli (vector pET28a), purified
B2: His-tagged DC-UbP (natural protein, human, UniProt Q8WUN7 1-234, looked up)
chain: MGGCVGAQHDSSGSLNENSEGTGVALGRNQPLKKEKPKWKSDYPMTDGQLRSKRDEFWDTAPAFEGRKEIWDALKAAAHAFESNDHELAQAIIDGANITLPHGALTECYDELGNRYQLPVYCLAPPINMIEEKSDIETLDIPEPPPNSGYECQLRLRLSTGKDLKLVVRSTDTVFHMKRRLHAAEGVEPGSQRWFFSGRPLTDKMKFEELKIPKDYVVQVIVSQPVQNPTPVEN
notes: DC-UbP / UBTD2, human, full-length; vector pET22b(+); 15N-labelled (M9 medium) in the NMR titrations; also called His6-DC-UbP; full-length DC-UbP; source: E. coli, purified (Ni-NTA, Superdex-75)
B3: GST-fused UFD domain of UbE1 (residues 950-1058) (domain or fragment)
chain: not shown
notes: UbE1, residues 950-1058 (C-terminal Ub-fold domain, UFD), from the UbE1 that was cloned from a mouse cDNA library; vector pGEX-4T-3; also called GST-UFD; C-terminal Ub-fold domain; source: E. coli, purified
B4: UbP_C (C-terminal part of DC-UbP, residues 129-234), His-tagged (domain or fragment, human, UniProt Q8WUN7 129-234, looked up)
chain: MIEEKSDIETLDIPEPPPNSGYECQLRLRLSTGKDLKLVVRSTDTVFHMKRRLHAAEGVEPGSQRWFFSGRPLTDKMKFEELKIPKDYVVQVIVSQPVQNPTPVEN
notes: 15N-labelled where it is the observed protein of an NMR titration, unlabelled where it is titrated into 15N-UBA1; also called UbL domain of DC-UbP; UbL; source: E. coli, purified (Ni-NTA, Superdex-75)

What was measured:
Settings in all cases: both partners purified
His-tagged DC-UbP [1] = molecular target: B2; test: NMR titration; 15N-labelled DC-UbP (100 uM) titrated stepwise with unlabelled USP5, UbE1, FH or SCCH; 1H-15N HSQC, 20 mM phosphate, 50 mM NaCl, pH 6.5, 298 K
[2] = molecular target: B1; test: as above
His-tagged DC-UbP [3] = molecular target: B2; test: NMR titration; 15N-labelled DC-UbP (20 uM in Fig. S4C) titrated with GST-UFD, up to 5:1; relative peak intensities
[4] = molecular target: B3; test: NMR titration; 15N-labelled UbP_N or UbP_C titrated with GST-UFD at a molar ratio of 1:3; peak intensity changes

Binder: B1
- mean relative peak intensity of the UBD domain of DC-UbP at 1:1 molar ratio (free DC-UbP = 1) (His-tagged DC-UbP [1]): 0.54
- mean relative peak intensity of the UbL domain of DC-UbP at 1:1 molar ratio (free DC-UbP = 1) (His-tagged DC-UbP [1]): 0.39

Binder: B2
- binding result [2]: binds

Binder: B3
- mean relative peak intensity of the UBD domain of DC-UbP at 5:1 molar ratio (His-tagged DC-UbP [3]): 0.69
- mean relative peak intensity of the UbL domain of DC-UbP at 5:1 molar ratio (His-tagged DC-UbP [3]): 0.44

Binder: B4
- binding result [4]: binds
